Blank lines part the entries; values can stand above or below the substance they belong to.
Tests used:
Assay in all cases: SEC-MALS
AtSOK1 DIX domain D78A = conditions: 2mg/ml D78A; parent value is 2mg/ml wt; calculated monomer mass of AtSOK1 DIX 25 kD (panel A); parent: 87
BhDIX K82A = conditions: monomer mass of BhDIX printed in panel as 24kD; parent: 90
BhDIX L8A = conditions: parent: est. 9.0e4; read off a plot
BhDIX Y10A = conditions: parent: est. 9.0e4; read off a plot
CpDIX D67A = conditions: monomer mass of CpDIX printed in panel as 22kD; parent: 90

other: observed molar mass (SEC-MALS, self-association) (AtSOK1 DIX domain D78A): 25 kD
Substance: AtSOK1 DIX domain (Arabidopsis thaliana SOSEKI1), wild type D78A

Substance: Blastocystis hominis DIX domain K82A
other: observed molar mass (SEC-MALS, self-association) (BhDIX K82A): 23 kD

Substance: Blastocystis hominis DIX domain L8A
other: observed molar mass (SEC-MALS, self-association) (BhDIX L8A): 55000 g/mol

Substance: Blastocystis hominis DIX domain Y10A
other: observed molar mass (SEC-MALS, self-association) (BhDIX Y10A): 35000 g/mol

Substance: Cryptosporidium parvum DIX domain D67A
other: observed molar mass (SEC-MALS, self-association) (CpDIX D67A): 22 kD
